Measured values as given in patent US20220218805A1.

B1: Ab29 (clone 12D11) (antibody, V domains shown)
VH: QIQLVQSGPELKKPGETVKISCKASGYTFTNYGMNWVKQAPGKGLKWMGWINTYSGEPTYVDDFKGRFAFSLETSASTAYLQINNLKNEDMATYFCARSPGAYYTLDYWGQGTSVTVSS
VL: DIVMSQSPSSLAVSAGEKVTMSCKSSQSLLNSRTRKNYLAWYQQKPGQSPKLLIYWASTRESGVPDRFTGSGSGTDFTLTISSVQAEDLAVYYCKQSYNLYTFGGGTKLEIK
B2: Ab21 (clone 2C6) (antibody, V domains shown)
VH: EVQLQQSGAELVKPGASVKLSCTASGFNIKDTHMHWVKQRPEQGLEWIGKIDPSNGNTQYDPKFQGKATITADTSSNTAYLQLSSLTSEDTAVYYCATGFAYWGQGTLVTVSA
VL: DIQMTQSPASLSASVGETVTITCRASGNIHNYLAWYQQKQGKSPQLLVYNAKTLADGVPSRFSGSGSGTQYSLKINSLQPEDFGSYYCQHFWYTPWTFGGGTKLEIK

Biological target: T1, Linear … (SEQ ID NO: 15) conjugated to BSA
T1 sequence (peptide, conjugated to BSA): CGGGKLDFG
Test: indirect ELISA, hybridoma supernatant on linear peptide-BSA

Row | Binder | OD [OD]
1 | B1 | 0.075
2 | B2 | 0.107
